Assay results taken from patent publication US20220213140A1.

How the values were obtained:
[1] = target: tocilizumab; assay: BLI (BLItz), biotinylated ligand on sensor, antibody in solution
[2] = target: tocilizumab; assay: BLItz biolayer interferometry; biotinylated ligand immobilized on the chip, tocilizumab at 41.34, 82.68 and 165.3 nM in PBS (+0.1% BSA); same fitted value in all three rows of the table [C]

tocilizumab, sequence (VH, as listed by the source, chain 1 of 2): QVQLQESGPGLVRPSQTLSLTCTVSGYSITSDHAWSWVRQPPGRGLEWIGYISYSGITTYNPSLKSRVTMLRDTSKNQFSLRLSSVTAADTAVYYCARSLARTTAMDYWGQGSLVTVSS
tocilizumab, sequence (VL, as listed by the source, chain 2 of 2): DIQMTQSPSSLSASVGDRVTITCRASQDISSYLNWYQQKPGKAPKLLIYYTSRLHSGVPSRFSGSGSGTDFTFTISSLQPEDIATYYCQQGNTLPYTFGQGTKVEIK

Kd [1]: 8.11 nM | koff [2]: 0.00281 s⁻¹ | kon [2]: 346000 M⁻¹ s⁻¹
Substance: ligand of MabSelect SuRe
